Test results from publication doi:10.1101/2023.05.08.539930.

B1: 70 bp (CAG)1 FRET DNA (dsDNA)
DNA 1: CACACGTTCCGAGATATCCTAGCAAGTGATCAGCGTCTATGTAGCTCAAGAGTTCGACTCAGCCTACACCGAG
DNA 2: CTCGGTGTAGGCTGAGTCGAACTCTTGAGCTACATAGACGATCACTTGCTAGGATATCTCGGAACGTGTG
modifications: 5' digoxigenin on both strands, anti-digoxigenin Fab end-blocked
B2: 70 bp (CAG)2 FRET DNA (dsDNA)
DNA 1: CACACGTTCCGAGATATCCTAGCAAGTGATCAGCAGCGTCTATGTAGCTCAAGAGTTCGACTCAGCCTACACCGAG
DNA 2: CTCGGTGTAGGCTGAGTCGAACTCTTGAGCTACATAGACGATCACTTGCTAGGATATCTCGGAACGTGTG
modifications: 5' digoxigenin on both strands, anti-digoxigenin Fab end-blocked
B3: 70 bp (CAG)4 FRET DNA (dsDNA)
DNA 1: CACACGTTCCGAGATATCCTAGCAAGTGATCAGCAGCAGCAGCGTCTATGTAGCTCAAGAGTTCGACTCAGCCTACACCGAG
DNA 2: CTCGGTGTAGGCTGAGTCGAACTCTTGAGCTACATAGACGATCACTTGCTAGGATATCTCGGAACGTGTG
modifications: 5' digoxigenin on both strands, anti-digoxigenin Fab end-blocked

Target: MSH2;MSH3 (Homo sapiens;Homo sapiens, UniProt P43246;P20585 1-934;1-1137, |)
Assay: FRET

Binding result, binds:
B1, B2, B3
